Measured values from patent US20200010563A1 (PROTHENA BIOSCIENCES, published 2020).
Where a chain is given by its changes, count along the chain named.

What was measured:
[1] = target: T1, human MCAM domain 3 (amino acids 244-321) hFc construct (human, UniProt P43121 244-321); assay: ForteBio BLI, MCAMhFc domains on anti-human IgG Fc sensors, antibody 5 ug/ml
T1 construct: One of the 'various MCAMhFc domains' immobilised on anti-human IgG Fc biosensors; also called MCAMhFc domain 3; not shown: human IgG Fc (hFc)
T1 sequence: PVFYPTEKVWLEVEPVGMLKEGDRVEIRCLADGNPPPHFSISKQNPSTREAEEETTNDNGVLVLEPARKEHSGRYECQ
Description: The following protocol was used: ForteBio anti-human IgG Fc biosensors were used to immobilize various MCAMhFc domains including full length MCAMhFc protein on to biosensor surface. […] After loading these samples into a black 96 well plate, the Octet Red was programmed as follows: 60 seconds for baseline #1; 180 seconds for loading various domains; 60 seconds for baseline #2; 180 seconds for association of antibody to domain; and 240 seconds for dissociation of antibody from domain.
1. MCAMhFc final concentration @ 5 ug/ml [0342] […] 3. ForteBio anti-human IgG Fc Capture (AHC) biosensors for kinetics experiments, cat#18-5060 [0344] 4. Block 96 well plate from Greiner Bio-one, cat#655209 [0345] 5. ForteBio Octet Red machine [0346] 6. Fresh tissue culture medium, DMEM with 20% FCS, was used as buffer for dilution The results from these analyses are as follows.

[2] = target: T2, human MCAM V340A mutant (V5/HIS6) on BHK cells (human, UniProt P43121 24-646); assay: shotgun mutagenesis, immunofluorescence on BHK cells
T2 sequence: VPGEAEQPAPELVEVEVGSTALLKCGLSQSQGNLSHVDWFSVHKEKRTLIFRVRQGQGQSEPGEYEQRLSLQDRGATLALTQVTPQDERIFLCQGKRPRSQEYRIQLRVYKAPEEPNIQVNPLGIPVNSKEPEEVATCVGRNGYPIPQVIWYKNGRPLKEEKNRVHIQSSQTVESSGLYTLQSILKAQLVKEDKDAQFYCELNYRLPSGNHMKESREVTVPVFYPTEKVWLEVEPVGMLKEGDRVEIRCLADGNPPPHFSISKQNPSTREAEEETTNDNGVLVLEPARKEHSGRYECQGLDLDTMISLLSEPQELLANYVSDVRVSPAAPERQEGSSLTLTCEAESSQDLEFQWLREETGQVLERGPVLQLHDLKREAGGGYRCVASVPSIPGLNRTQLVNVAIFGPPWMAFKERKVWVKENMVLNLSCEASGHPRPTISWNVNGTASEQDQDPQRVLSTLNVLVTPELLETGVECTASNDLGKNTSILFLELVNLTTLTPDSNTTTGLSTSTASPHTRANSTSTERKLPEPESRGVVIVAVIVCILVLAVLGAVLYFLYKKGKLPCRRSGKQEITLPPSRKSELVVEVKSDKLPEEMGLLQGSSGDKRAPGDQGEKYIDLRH
Method: (§1) The mutation library was assayed for surface expression (mouse sera binding) and monoclonal antibody binding, in triplicate. Each raw data point was background-subtracted and normalized to the wild type MCAM reactivity values. The mean monoclonal antibody binding value for each clone is plotted as a function of its mean surface expression value (FIG. 1, gray diamonds). Thresholds of <30% monoclonal antibody reactivity and >50% mouse sera binding were applied to identify clones (FIG. 1, black diamonds) that were negative for monoclonal antibody binding but positive for surface expression.
(§2) Residues involved in antibody binding were identified as those that were negative for monoclonal antibody binding (<30% WT) but positive for surface expression (>50% WT) (Table 4). The mean reactivity (and standard deviation) were determined for each critical residue.

[3] = target: T3, human MCAM W377A mutant (V5/HIS6) on BHK cells (human, UniProt P43121 24-646); assay: shotgun mutagenesis library, immunofluorescence on BHK cells, triplicate; standard deviation in brackets
T3 sequence: T2 sequence with A317V, W354A
Method: as §1, §2

[4] = target: T4, human MCAM Y318A mutant (V5/HIS6) on BHK cells (human, UniProt P43121 24-646); assay: as above
T4 sequence: T2 sequence with Y295A, A317V
Method: as §1, §2

[5] = target: T5, human MCAM C320A mutant (V5/HIS6) on BHK cells (human, UniProt P43121 24-646); assay: as above
T5 sequence: T2 sequence with C297A, A317V
Method: as §1, §2

[6] = target: T6, human MCAM C272A mutant (V5/HIS6) on BHK cells (human, UniProt P43121 24-646); assay: as above
T6 sequence: T2 sequence with C249A, A317V
Method: as §1, §2

[7] = target: T2, human MCAM V340A mutant (V5/HIS6) on …; assay: as above
Method: as §1, §2

B1: mouse anti-human MCAM monoclonal antibody clone 1174.1.3 (antibody, V domains shown)
VH: QIQLVQSGPELKKPGETVKISCKASGYTFTNYGMNWVKQAPGKGLKWMGWINTYTGEPTYADDFKGRFALSLETSASTAYLQINNLKNEDMATYFCARYRYNKYERAMDYWGQGTSVTVSS
VL: DIVLTQSPASLAVSLGQRATISCRASKSVSTSGYSYMYWYQQKPGQPPKLLIYLASNLESGVPARFSGSGSGTDFTLNIHPVEEEDAATYYCQHSRELPFTFGSGTKLEIK
notes: Mouse hybridoma monoclonal
- binding result [1]: binds

B2: mouse anti-human MCAM monoclonal antibody clone 1414.1.2 (antibody, V domains shown)
VH: EIQLQQTGPELVKPGASVKISCKASGYSFTDYIMLWVKQSHGKSLEWIGNINPYSGSSGYNLKFKGKATLTVDKSSSTAYMQLNSLTSEDSAVYYCARGKDFAMDYWGQGTSVTVSS
VL: DIVMSQSPSSLAVSAGEKVTMSCKSSQSLLNSSTRKNFLAWYQQKPGQSPKLLIYWASTRESGVPDRFTGSGSGTDFTLTISSVQAEDLAVYYCKQSYNRYTFGGGTKLEIK
notes: Mouse hybridoma monoclonal
- binding result [1]: binds

B3: mouse anti-human MCAM monoclonal antibody clone 1749.1.3 (antibody, V domains shown)
VH: DVKLVESGGDLVKPGGSLKLSCAASGFTFSSYIMSWVRQTPEKRLEWVATISSGGSSTYYPDSVKGRFTISRDNAKNTLYLQMSSLKSEDTAMYYCTRDDDYDVKVFAYWGQGTLVTVSA
VL: B2 VL with S22N, Q27R, S33R, T34I, F38Y, R100L, Y101L, G105A, I111L
notes: Mouse hybridoma monoclonal; also called m1749
- binding result [2]: no binding (tested: <30% WT; 0.5 µg/mL antibody)
- mean reactivity (% of wild type MCAM) [3]: 13.7 % of WT
- mean reactivity (% of wild type MCAM) [4]: 7.1 % of WT
- mean reactivity (% of wild type MCAM) [5]: 9.3 % of WT
- mean reactivity (% of wild type MCAM) [6]: 7.6 % of WT
- mean reactivity (% of wild type MCAM) [7]: 8.7 % of WT

B4: mouse anti-human MCAM monoclonal antibody clone 1415.1.1 (antibody, V domains shown)
VH: QVQLQQPGAELVQPGAPVKLSCKASGYIFTSYWMNWVKQRPGRGLEWIGRIDPSDSKIHYNQKFKDKATLTVDRSSSTAYIQLGSLTSEDSAVYYCAKEGGLRRGDYAMDYWGQGTSVTVSS
VL: DIVMTQSPATLSVTPGDRVSLSCRASQSISDYLHWYQQKSHESPRLLIKYASQSISGIPSRFSGSGSGSDFTLSINSVEPEDVGVYYCQNGHNFPRTFGGGTKLEIK
notes: Mouse hybridoma monoclonal
- binding result [1]: binds
